* marks the point of attachment. C27H50N3O2SC(O)‑ = not defined here; Palmitoyl = CCCCCCCCCCCCCCCC(=O)*
B1: CXCR4 i1 loop compound 42 (peptide)
peptide: Palmitoyl-KKLRSMTDKYRLHL-NH2
SMILES: CCCCCCCCCCCCCCCC(=O)N[C@@H](CCCCN)C(=O)N[C@@H](CCCCN)C(=O)N[C@@H](CC(C)C)C(=O)N[C@@H](CCCNC(=N)N)C(=O)N[C@@H](CO)C(=O)N[C@@H](CCSC)C(=O)N[C@H](C(=O)N[C@@H](CC(=O)O)C(=O)N[C@@H](CCCCN)C(=O)N[C@@H](Cc1ccc(O)cc1)C(=O)N[C@@H](CCCNC(=N)N)C(=O)N[C@@H](CC(C)C)C(=O)N[C@@H](Cc1c[nH]cn1)C(=O)N[C@@H](CC(C)C)C(N)=O)[C@@H](C)O
B2: CXCR4 i1 loop compound 36 (peptide)
peptide: Palmitoyl-MGYQKKLRSMTDK-NH2
SMILES: CCCCCCCCCCCCCCCC(=O)N[C@@H](CCSC)C(=O)NCC(=O)N[C@@H](Cc1ccc(O)cc1)C(=O)N[C@@H](CCC(N)=O)C(=O)N[C@@H](CCCCN)C(=O)N[C@@H](CCCCN)C(=O)N[C@@H](CC(C)C)C(=O)N[C@@H](CCCNC(=N)N)C(=O)N[C@@H](CO)C(=O)N[C@@H](CCSC)C(=O)N[C@H](C(=O)N[C@@H](CC(=O)O)C(=O)N[C@@H](CCCCN)C(N)=O)[C@@H](C)O
B3: CXCR4 i1 loop compound 41 (peptide)
peptide: Palmitoyl-KKLRSMTDKYRLHLSV-NH2
SMILES: CCCCCCCCCCCCCCCC(=O)N[C@@H](CCCCN)C(=O)N[C@@H](CCCCN)C(=O)N[C@@H](CC(C)C)C(=O)N[C@@H](CCCNC(=N)N)C(=O)N[C@@H](CO)C(=O)N[C@@H](CCSC)C(=O)N[C@H](C(=O)N[C@@H](CC(=O)O)C(=O)N[C@@H](CCCCN)C(=O)N[C@@H](Cc1ccc(O)cc1)C(=O)N[C@@H](CCCNC(=N)N)C(=O)N[C@@H](CC(C)C)C(=O)N[C@@H](Cc1c[nH]cn1)C(=O)N[C@@H](CC(C)C)C(=O)N[C@@H](CO)C(=O)N[C@H](C(N)=O)C(C)C)[C@@H](C)O
B4: CXCR4 i1 loop compound 39 (peptide)
peptide: Palmitoyl-MGYQKKLRSMTDKYRLHL-NH2
SMILES: CCCCCCCCCCCCCCCC(=O)N[C@@H](CCSC)C(=O)NCC(=O)N[C@@H](Cc1ccc(O)cc1)C(=O)N[C@@H](CCC(N)=O)C(=O)N[C@@H](CCCCN)C(=O)N[C@@H](CCCCN)C(=O)N[C@@H](CC(C)C)C(=O)N[C@@H](CCCNC(=N)N)C(=O)N[C@@H](CO)C(=O)N[C@@H](CCSC)C(=O)N[C@H](C(=O)N[C@@H](CC(=O)O)C(=O)N[C@@H](CCCCN)C(=O)N[C@@H](Cc1ccc(O)cc1)C(=O)N[C@@H](CCCNC(=N)N)C(=O)N[C@@H](CC(C)C)C(=O)N[C@@H](Cc1c[nH]cn1)C(=O)N[C@@H](CC(C)C)C(N)=O)[C@@H](C)O
B5: CXCR4 i1 loop compound 37 (peptide)
peptide: Palmitoyl-MGYQKKLRSMTDKY-NH2
SMILES: CCCCCCCCCCCCCCCC(=O)N[C@@H](CCSC)C(=O)NCC(=O)N[C@@H](Cc1ccc(O)cc1)C(=O)N[C@@H](CCC(N)=O)C(=O)N[C@@H](CCCCN)C(=O)N[C@@H](CCCCN)C(=O)N[C@@H](CC(C)C)C(=O)N[C@@H](CCCNC(=N)N)C(=O)N[C@@H](CO)C(=O)N[C@@H](CCSC)C(=O)N[C@H](C(=O)N[C@@H](CC(=O)O)C(=O)N[C@@H](CCCCN)C(=O)N[C@@H](Cc1ccc(O)cc1)C(N)=O)[C@@H](C)O
B6: CXCR4 i1 loop compound 40 (peptide)
peptide: Palmitoyl-YQKKLRSMTDKYRLHLSV-NH2
SMILES: CCCCCCCCCCCCCCCC(=O)N[C@@H](Cc1ccc(O)cc1)C(=O)N[C@@H](CCC(N)=O)C(=O)N[C@@H](CCCCN)C(=O)N[C@@H](CCCCN)C(=O)N[C@@H](CC(C)C)C(=O)N[C@@H](CCCNC(=N)N)C(=O)N[C@@H](CO)C(=O)N[C@@H](CCSC)C(=O)N[C@H](C(=O)N[C@@H](CC(=O)O)C(=O)N[C@@H](CCCCN)C(=O)N[C@@H](Cc1ccc(O)cc1)C(=O)N[C@@H](CCCNC(=N)N)C(=O)N[C@@H](CC(C)C)C(=O)N[C@@H](Cc1c[nH]cn1)C(=O)N[C@@H](CC(C)C)C(=O)N[C@@H](CO)C(=O)N[C@H](C(N)=O)C(C)C)[C@@H](C)O
B7: CXCR4 i3 loop compound 93 (peptide)
peptide: Palmitoyl-KLSHSKGHQKRKAL-NH2
SMILES: CCCCCCCCCCCCCCCC(=O)N[C@@H](CCCCN)C(=O)N[C@@H](CC(C)C)C(=O)N[C@@H](CO)C(=O)N[C@@H](Cc1c[nH]cn1)C(=O)N[C@@H](CO)C(=O)N[C@@H](CCCCN)C(=O)NCC(=O)N[C@@H](Cc1c[nH]cn1)C(=O)N[C@@H](CCC(N)=O)C(=O)N[C@@H](CCCCN)C(=O)N[C@@H](CCCNC(=N)N)C(=O)N[C@@H](CCCCN)C(=O)N[C@@H](C)C(=O)N[C@@H](CC(C)C)C(N)=O
B8: Compound No. 90 (Pal-KLSHSKGHQKRKALKTTV-amide) (peptide)
peptide: Palmitoyl-KLSHSKGHQKRKALKTTV-NH2
SMILES: CCCCCCCCCCCCCCCC(=O)N[C@@H](CCCCN)C(=O)N[C@@H](CC(C)C)C(=O)N[C@@H](CO)C(=O)N[C@@H](Cc1c[nH]cn1)C(=O)N[C@@H](CO)C(=O)N[C@@H](CCCCN)C(=O)NCC(=O)N[C@@H](Cc1c[nH]cn1)C(=O)N[C@@H](CCC(N)=O)C(=O)N[C@@H](CCCCN)C(=O)N[C@@H](CCCNC(=N)N)C(=O)N[C@@H](CCCCN)C(=O)N[C@@H](C)C(=O)N[C@@H](CC(C)C)C(=O)N[C@@H](CCCCN)C(=O)N[C@H](C(=O)N[C@H](C(=O)N[C@H](C(N)=O)C(C)C)[C@@H](C)O)[C@@H](C)O
B9: CXCR4 i3 loop compound 89 (peptide)
peptide: Palmitoyl-KLSHSKGHQKRKALKTTVIL-NH2
SMILES: CCCCCCCCCCCCCCCC(=O)N[C@@H](CCCCN)C(=O)N[C@@H](CC(C)C)C(=O)N[C@@H](CO)C(=O)N[C@@H](Cc1c[nH]cn1)C(=O)N[C@@H](CO)C(=O)N[C@@H](CCCCN)C(=O)NCC(=O)N[C@@H](Cc1c[nH]cn1)C(=O)N[C@@H](CCC(N)=O)C(=O)N[C@@H](CCCCN)C(=O)N[C@@H](CCCNC(=N)N)C(=O)N[C@@H](CCCCN)C(=O)N[C@@H](C)C(=O)N[C@@H](CC(C)C)C(=O)N[C@@H](CCCCN)C(=O)N[C@H](C(=O)N[C@H](C(=O)N[C@H](C(=O)N[C@H](C(=O)N[C@@H](CC(C)C)C(N)=O)[C@@H](C)CC)C(C)C)[C@@H](C)O)[C@@H](C)O
B10: CXCR4 i3 loop compound 87 (peptide)
peptide: {C27H50N3O2SC(O)‑}-HSKGHQKRKQALK-NH2
modifications: reading uncertain
B11: CXCR4 i3 loop compound 92 (peptide)
peptide: Palmitoyl-KLSHSKGHQKRKALK-NH2
SMILES: CCCCCCCCCCCCCCCC(=O)N[C@@H](CCCCN)C(=O)N[C@@H](CC(C)C)C(=O)N[C@@H](CO)C(=O)N[C@@H](Cc1c[nH]cn1)C(=O)N[C@@H](CO)C(=O)N[C@@H](CCCCN)C(=O)NCC(=O)N[C@@H](Cc1c[nH]cn1)C(=O)N[C@@H](CCC(N)=O)C(=O)N[C@@H](CCCCN)C(=O)N[C@@H](CCCNC(=N)N)C(=O)N[C@@H](CCCCN)C(=O)N[C@@H](C)C(=O)N[C@@H](CC(C)C)C(=O)N[C@@H](CCCCN)C(N)=O
B12: Compound No. 88 (Pal-SKLSHSKGHQKRKALKTTVIL-amide) (peptide)
peptide: Palmitoyl-SKLSHSKGHQKRKALKTTVIL-NH2
SMILES: CCCCCCCCCCCCCCCC(=O)N[C@@H](CO)C(=O)N[C@@H](CCCCN)C(=O)N[C@@H](CC(C)C)C(=O)N[C@@H](CO)C(=O)N[C@@H](Cc1c[nH]cn1)C(=O)N[C@@H](CO)C(=O)N[C@@H](CCCCN)C(=O)NCC(=O)N[C@@H](Cc1c[nH]cn1)C(=O)N[C@@H](CCC(N)=O)C(=O)N[C@@H](CCCCN)C(=O)N[C@@H](CCCNC(=N)N)C(=O)N[C@@H](CCCCN)C(=O)N[C@@H](C)C(=O)N[C@@H](CC(C)C)C(=O)N[C@@H](CCCCN)C(=O)N[C@H](C(=O)N[C@H](C(=O)N[C@H](C(=O)N[C@H](C(=O)N[C@@H](CC(C)C)C(N)=O)[C@@H](C)CC)C(C)C)[C@@H](C)O)[C@@H](C)O

Molecular target: T1, CXCR4 receptor (human, UniProt P61073 1-352)
Assay: cell-based or functional assay

T1 sequence (P61073 whole entry): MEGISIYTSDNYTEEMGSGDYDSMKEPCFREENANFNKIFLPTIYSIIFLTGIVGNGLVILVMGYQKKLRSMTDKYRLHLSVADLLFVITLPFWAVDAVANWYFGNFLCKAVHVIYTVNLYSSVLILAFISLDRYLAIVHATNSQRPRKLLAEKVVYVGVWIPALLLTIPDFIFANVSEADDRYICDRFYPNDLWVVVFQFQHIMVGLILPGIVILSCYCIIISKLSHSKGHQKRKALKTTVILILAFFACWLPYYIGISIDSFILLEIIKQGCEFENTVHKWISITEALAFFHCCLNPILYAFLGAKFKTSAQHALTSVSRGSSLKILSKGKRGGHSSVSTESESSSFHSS

First: B1
Second: B3
The “AUC (% of), CHTX, SUP B-15, 1.0 uM” value of the first is lower: 43.8% for the first, 51.7% for the second.

First: B4
Second: B5
The “AUC (% of), CHTX, SUP B-15, 1.0 uM” value of the first is lower: 47.4% for the first, 63.5% for the second.

B6 was tested, and the “AUC (% of), CHTX, SUP B-15, 1.0 uM” value was 71.9%.

First: B1
Second: B3
The “Max (% of), CHTX, SUP B-15, 1.0 uM” value of the first is lower: 33.5% for the first, 41.7% for the second.

Compared with B4, B5 is higher in “Max (% of), CHTX, SUP B-15, 1.0 uM” value: 37.6% for the first, 91.1% for the second.

With B6 the “Max (% of), CHTX, SUP B-15, 1.0 uM” value was 71.2%.

For B1, the “Peak Ratio, CHTX, CEM, 1.0 uM (row labelled 46, sequence of 42)” value was 0.01.

Going from B1 to B3, the “Peak Ratio, CHTX, SUP B-15, 1.0 uM” value falls from 0.2 to 0.04.

B4 and B5 are the same in “Peak Ratio, CHTX, SUP B-15, 1.0 uM” value: 0.2 for the first, 0.2 for the second.

B6 was tested, and the “Peak Ratio, CHTX, SUP B-15, 1.0 uM” value was 0.2.

Going from B2 to B3, the “AUC (% of), CHTX, CEM, 1.0 uM” value falls from 102% to 66.7%.

Going from B4 to B5, the “AUC (% of), CHTX, CEM, 1.0 uM” value rises from 37.5% to 92.3%.

Compared with B2, B3 is lower in “Max (% of), CHTX, CEM, 1.0 uM” value: 119% for the first, 76.8% for the second.

Going from B4 to B5, the “Max (% of), CHTX, CEM, 1.0 uM” value rises from 59.7% to 97.8%.

First: B2
Second: B3
The “Peak Ratio, CHTX, CEM, 1.0 uM” value of the first is higher: 0.2 for the first, 0.01 for the second.

B4 and B5 are the same in “Peak Ratio, CHTX, CEM, 1.0 uM” value: 0.04 for the first, 0.04 for the second.

B2 was tested, and the “Peak Ratio, CHTX, SUP B15, 1.0 uM” value was 0.2.

Molecular target: T1, CXCR4 receptor
Assay: cell-based or functional assay
Remark: another data set of the same source

First: B7
Second: B9
The “AUC (% of vehicle), chemotaxis, CEM, 1.0 uM” value of the first is lower: 15.9 % of vehicle for the first, 37.5 % of vehicle for the second.

Compared with B10, B12 is higher in “AUC (% of vehicle), chemotaxis, CEM, 1.0 uM” value: 52.6 % of vehicle for the first, 144 % of vehicle for the second.

Going from B7 to B9, the “Max (% of vehicle), chemotaxis, CEM, 1.0 uM” value rises from 54.8 % of vehicle to 59.7 % of vehicle.

Compared with B10, B12 is higher in “Max (% of vehicle), chemotaxis, CEM, 1.0 uM” value: 76.1 % of vehicle for the first, 132 % of vehicle for the second.

Compared with B7, B9 is lower in “Peak Ratio, chemotaxis, CEM, 1.0 uM” value: 0.2 for the first, 0.04 for the second.

B10 and B11 are the same in “Peak Ratio, chemotaxis, CEM, 1.0 uM” value: 0.2 for the first, 0.2 for the second.

B12 was tested, and the “Peak Ratio, chemotaxis, CEM, 1.0 uM” value was 1.

Going from B8 to B11, the “Peak Ratio, chemotaxis, CEM, 0.01 uM” value falls from 1 to 0.2.

In the case of B12, the “Peak Ratio, chemotaxis, CEM, 0.01 uM” value is reported as 0.04.

First: B8
Second: B11
The “Peak Ratio, chemotaxis, CEM, 0.03 uM” value of the first is higher: 1 for the first, 0.2 for the second.

B12 was tested, and the “Peak Ratio, chemotaxis, CEM, 0.03 uM” value was 0.04.

B8 and B11 are the same in “Peak Ratio, chemotaxis, CEM, 0.1 uM” value: 0.2 for the first, 0.2 for the second.

In the case of B12, the “Peak Ratio, chemotaxis, CEM, 0.1 uM” value is reported as 0.04.

First: B8
Second: B11
The “Peak Ratio, chemotaxis, CEM, 0.3 uM” value of the first is higher: 1 for the first, 0.2 for the second.

For B12, the “Peak Ratio, chemotaxis, CEM, 0.3 uM” value was 0.2.

B8 and B11 are the same in “Peak Ratio, chemotaxis, CEM, 3.0 uM” value: 1 for the first, 1 for the second.

B12 was tested, and the “Peak Ratio, chemotaxis, CEM, 3.0 uM” value was 1.

— patent US20130210709A1 (ANCHOR THERAPEUTICS, published 2013)
